Measurements published in the Human Domainome abundance scans (Beltran et al. 2025).
± gives the uncertainty stated by the source.

B1: Endonuclease CUE2, residues 9 to 47; numbered along this chain, P36075 (parent)
chain: HESKLSILMDMFPAISKSKLQVHLLENNNDLDLTIGLLL

Variants of: B1
Experiment: abundance fitness (aPCA) (normalised: wild type 0, dead -1); higher = more abundant; growth selection in yeast, the domain comes from the species named
Conditions: Saccharomyces cerevisiae (strain ATCC 204508 / S288c)

| Variant | abundance fitness |
| --- | --- |
| HESKLSILMDMFPAISKSKLQVHLLENNKDLDLTIGLLL [N29K] | -0.364 ± 0.076 |
| HESKLSILMDMFPAISKSKLQVHLLENNADLDLTIGLLL [N29A] | -0.086 ± 0.041 |
| HESKLSILMDMFPAISKSKLQVHLLENNSDLDLTIGLLL [N29S] | -0.065 ± 0.05 |
| HESKLSILMDMFPAISKSKLQVHLLENNPDLDLTIGLLL [N29P] | -0.324 ± 0.088 |
| HESKLSILMDMFPAISKSKLQVHLLENNFDLDLTIGLLL [N29F] | -0.059 ± 0.3 |
| HESKLSILMDMFPAISKSKLQVHLLENNDDLDLTIGLLL [N29D] | -0.082 ± 0.11 |
| HESKLSILMDMFPAISKSKLQVHLLENNMDLDLTIGLLL [N29M] | -0.008 ± 0.063 |
| HESKLSILMDMFPAISKSKLQVHLLENNWDLDLTIGLLL [N29W] | 0.039 ± 0.038 |
| HESKLSILMDMFPAISKSKLQVHLLENNCDLDLTIGLLL [N29C] | 0.052 ± 0.057 |
| HESKLSILMDMFPAISKSKLQVHLLENNQDLDLTIGLLL [N29Q] | 0.037 ± 0.082 |
| HESKLSILMDMFPAISKSKLQVHLLENNTDLDLTIGLLL [N29T] | -0.402 ± 0.088 |
| HESKLSILMDMFPAISKSKLQVHLLENNHDLDLTIGLLL [N29H] | -0.117 ± 0.14 |
| HESKLSILMDMFPAISKSKLQVHLLENNLDLDLTIGLLL [N29L] | -0.112 ± 0.058 |
| HESKLSILMDMFPAISKSKLQVHLLENNVDLDLTIGLLL [N29V] | -0.262 ± 0.051 |
| HESKLSILMDMFPAISKSKLQVHLLENNRDLDLTIGLLL [N29R] | -0.222 ± 0.035 |
| HESKLSILMDMFPAISKSKLQVHLLENNNDPDLTIGLLL [L31P] | -1.01 ± 0.21 |
| HESKLSILMDMFPAISKSKLQVHLLENNNDEDLTIGLLL [L31E] | -0.633 ± 0.11 |
| HESKLSILMDMFPAISKSKLQVHLLENNNDNDLTIGLLL [L31N] | -0.881 ± 0.37 |
| HESKLSILMDMFPAISKSKLQVHLLENNNDMDLTIGLLL [L31M] | -0.211 ± 0.099 |
| HESKLSILMDMFPAISKSKLQVHLLENNNDVDLTIGLLL [L31V] | 0.136 ± 0.033 |
| HESKLSILMDMFPAISKSKLQVHLLENNNDQDLTIGLLL [L31Q] | -0.483 ± 0.077 |
| HESKLSILMDMFPAISKSKLQVHLLENNNDRDLTIGLLL [L31R] | -0.841 ± 0.072 |

| Variant | abundance fitness |
| --- | --- |
| HESKLSILMDMFPAISKSKLQVHLLENNNDKDLTIGLLL [L31K] | -0.752 ± 0.18 |
| HESKLSILMDMFPAISKSKLQVHLLENNNDTDLTIGLLL [L31T] | -0.35 ± 0.046 |
| HESKLSILMDMFPAISKSKLQVHLLENNNDWDLTIGLLL [L31W] | -0.694 ± 0.085 |
| HESKLSILMDMFPAISKSKLQVHLLENNNDGDLTIGLLL [L31G] | -0.913 ± 0.084 |
| HESKLSILMDMFPAISKSKLQVHLLENNNDHDLTIGLLL [L31H] | -0.676 ± 0.27 |
| HESKLSILMDMFPAISKSKLQVHLLENNNDSDLTIGLLL [L31S] | -0.816 ± 0.093 |
| HESKLSILMDMFPAISKSKLQVHLLENNNDCDLTIGLLL [L31C] | -0.388 ± 0.053 |
| HESKLSILMDMFPAISKSKLQVHLLENNNDIDLTIGLLL [L31I] | -0.064 ± 0.17 |
| HESKLSILMDMFPAISKSKLQVHLLENNNDLDLTGGLLL [I35G] | -0.596 ± 0.044 |
| HESKLSILMDMFPAISKSKLQVHLLENNNDLDLTTGLLL [I35T] | -0.053 ± 0.051 |
| HESKLSILMDMFPAISKSKLQVHLLENNNDLDLTLGLLL [I35L] | -0.165 ± 0.036 |
| HESKLSILMDMFPAISKSKLQVHLLENNNDLDLTSGLLL [I35S] | -0.153 ± 0.045 |
| HESKLSILMDMFPAISKSKLQVHLLENNNDLDLTNGLLL [I35N] | -0.532 ± 0.17 |
| HESKLSILMDMFPAISKSKLQVHLLENNNDLDLTRGLLL [I35R] | 0.07 ± 0.033 |
| HESKLSILMDMFPAISKSKLQVHLLENNNDLDLTDGLLL [I35D] | -0.78 ± 0.11 |
| HESKLSILMDMFPAISKSKLQVHLLENNNDLDLTVGLLL [I35V] | -0.067 ± 0.04 |
| HESKLSILMDMFPAISKSKLQVHLLENNNDLDLTYGLLL [I35Y] | -0.174 ± 0.058 |
| HESKLSILMDMFPAISKSKLQVHLLENNNDLDLTFGLLL [I35F] | -0.75 ± 0.18 |
| HESKLSILMDMFPAISKSKLQVHLLENNNDLDLTKGLLL [I35K] | 0.07 ± 0.048 |
| HESKLSILMDMFPAISKSKLQVHLLENNNDLDLTHGLLL [I35H] | -0.371 ± 0.12 |
| HESKLSILMDMFPAISKSKLQVHLLENNNDLDLTCGLLL [I35C] | -0.114 ± 0.044 |
| HESKLSILMDMFPAISKSKLQVHLLENNNDLDLTAGLLL [I35A] | -0.04 ± 0.043 |

| Variant | abundance fitness |
| --- | --- |
| HESKLSILMDMFPAISKSKLQVHLLENNNDLDLTMGLLL [I35M] | -0.065 ± 0.044 |
| HESKLSILMDMFPAISKSKLQVHLLENNNDLDLTPGLLL [I35P] | -0.8 ± 0.14 |
| HESKLSILMDMFPAISKSKLQVHLLENNNDLDLTWGLLL [I35W] | -0.483 ± 0.071 |
| HESKLSILMDMFPAISKSKLQVHLLENNNDLALTIGLLL [D32A] | -0.124 ± 0.039 |
| HESKLSILMDMFPAISKSKLQVHLLENNNDLELTIGLLL [D32E] | -0.055 ± 0.054 |
| HESKLSILMDMFPAISKSKLQVHLLENNNDLTLTIGLLL [D32T] | -0.183 ± 0.052 |
| HESKLSILMDMFPAISKSKLQVHLLENNNDLGLTIGLLL [D32G] | -0.082 ± 0.034 |
| HESKLSILMDMFPAISKSKLQVHLLENNNDLRLTIGLLL [D32R] | -0.091 ± 0.038 |
| HESKLSILMDMFPAISKSKLQVHLLENNNDLNLTIGLLL [D32N] | 0.07 ± 0.25 |
| HESKLSILMDMFPAISKSKLQVHLLENNNDLQLTIGLLL [D32Q] | 0.032 ± 0.038 |
| HESKLSILMDMFPAISKSKLQVHLLENNNDLKLTIGLLL [D32K] | -0.003 ± 0.079 |
| HESKLSILMDMFPAISKSKLQVHLLENNNDLLLTIGLLL [D32L] | -0.416 ± 0.078 |
| HESKLSILMDMFPAISKSKLQVHLLENNNDLVLTIGLLL [D32V] | -0.302 ± 0.045 |
| HESKLSILMDMFPAISKSKLQVHLLENNNDLHLTIGLLL [D32H] | -0.106 ± 0.056 |
| HESKLSILMDMFPAISKSKLQVHLLENNNDLWLTIGLLL [D32W] | -0.499 ± 0.068 |
| HESKLSILMDMFPAISKSKLQVHLLENNNDLYLTIGLLL [D32Y] | -0.659 ± 0.33 |
| HESKLSILMDMFPAISKSKLQVHLLENNNLLDLTIGLLL [D30L] | -0.66 ± 0.18 |
| HESKLSILMDMFPAISKSKLQVHLLENNNALDLTIGLLL [D30A] | -0.286 ± 0.035 |
| HESKLSILMDMFPAISKSKLQVHLLENNNTLDLTIGLLL [D30T] | -0.813 ± 0.17 |
| HESKLSILMDMFPAISKSKLQVHLLENNNQLDLTIGLLL [D30Q] | -0.194 ± 0.075 |
